Assay results taken from US20230248799A1, “COMBINATION THERAPY OF SUBSTANCE-P FOR MOBILIZATION OF HEMATOPOIETIC STEM CELLS” (ELPHIS CELL THERAPEUTICS, priority 2020, published 2023).

Legend:
[1] = system: hematopoietic stem cells in the blood; experiment: Mobilization of hematopoietic stem cells by SP alone (HSC-CFU colony count of blood cells); type: in vivo; details: rabbits; for level of hematopoietic stem cells in blood on the basis of 1X on day 0: intravenous (ear vein) twice, SP 6.7 µg/kg, G-CSF 10 µg/kg
Description: In order to confirm the effect of the drug administered in a normal physiological state alone, the effect of SP was tested using a normal group without wounds. This is because, in the case of injured animals, there are many other factors secreted by the wounds, and, thus, it is difficult to differentiate such factors from the effect of the administered drug, and especially because both SP and G-CSF are endogenous substances in the body.
To confirm the effect of SP alone on mobilization of hematopoietic stem cell, five (5) rabbits were prepared for each group. SP (6.7 µg/kg, sigma Aldrich) was administered twice via Ear vein, and the levels of hematopoietic stem cells in the blood of the same animals for 3 days were compared.
After injection of the drug, 5 ml of blood was collected once a day, put into a 15 ml tube (Falcon), and diluted twice by adding PBS (Welgene). To isolate blood cells, each of 5 ml Ficoll-Paque (Amersham) was placed in a new tube, and diluted blood was placed on top of it. The tubes were carefully handled so as not to mix the Ficoll layer and blood layer, and, after the blood layers were completely put in the tubes, centrifugation (813 g, Megafuge 8R, Thermo Scientific) was performed for 20 minutes. After centrifugation, the layers were separated, resulting in a total of four layers. The uppermost layer was plasma, the second layer was the blood cell layer excluding erythrocytes, the third layer was Ficoll, and the bottom layer was the erythrocyte layer. Among them, only the blood cell layer was separated and put into a tube, and PBS was then added thereto to centrifuge same. 5×10^6 blood cells were placed in a 35 mm plate and cultured in HSC-CFU media (Hematopoietic stem cells-colony forming unit media, purchased from Miltenyi). While the cells were cultured in the initial state for 2 weeks without exchanging the media, the number of colonies was observed every day and finally counted.

[2] = system: immune cells in the blood; experiment: Effect of SP on blood immune cells (CBC count, percentages in total leukocytes); details: rabbits, G-CSF 10 µg/kg intravenous twice; day 2

B1: G-CSF: recombinant granulocyte colony stimulating factor, a glycoprotein stimulating neutrophil progenitor cells and mature neutrophils (protein, UniProt P09919 31-207, looked up)
Granulocyte …: TPLGPASSLPQSFLLKCLEQVRKIQGDGAALQEKLVSECATYKLCHPEELVLLGHSLGIPWAPLSSCPSQALQLAGCLSQLHSGLFLYQGLLQALEGISPELGPTLDTLQLDVADFATTIWQQMEELGMAPALQPTQGAMPAFASAFQRRAGGVLVASHLQSFLEVSYRVLRHLAQP
Q: How did the “level of hematopoietic stem cells in blood on the basis of 1X on day 0” value (“level of hematopoietic stem cells” for short) ([1]; day 1) turn out when B1 was run?
A: The value was 2 X.

Q: What about the “level of hematopoietic stem cells” value ([1]; day 2) of the same molecule?
A: The value was 2.5 X.

Q: What about the “level of hematopoietic stem cells” value ([1]; day 3) of the same molecule?
A: The value was 0.6 X.

Q: And the “effect on mobilization of hematopoietic stem cells (in words)” value ([1]; intravenous twice, followed for 3 days, FIG. 1)?
A: Its value is “negligible effect on mobilization of hematopoietic stem cells”.

Q: What about the “increase of the percentage of neutrophils in the blood” value [2] of the same molecule?
A: The value was “about 65%”.
